Measured values published in article PMC6265244, “A synthetic microbial biosensor for high-throughput screening of lactam biocatalysts” (Nature Communications, 2018).
Each block holds one molecule with its values, some of them ahead of it.

Legend:
[1] = biological target: 3-hydroxybutyrate dehydrogenase from Citrobacter freundii (CF3HBD) (Citrobacter freundii); assay: crystal structure; hanging-drop vapor diffusion at 20 °C, protein with 5 mM NAD+, 3.2 M sodium acetate pH 6.5; space group P2_(1), four molecules in an asymmetric unit
SM3HBD = biological target: T1, SM3HBD (Serratia marcescens, UniProt A0A2F0PAS1); assay: cyclization assay with purified enzyme, ε-caprolactam formed; assay type: biochemical
T1 construct: gene DMW51_14370
T1 sequence (A0A2F0PAS1 1-256): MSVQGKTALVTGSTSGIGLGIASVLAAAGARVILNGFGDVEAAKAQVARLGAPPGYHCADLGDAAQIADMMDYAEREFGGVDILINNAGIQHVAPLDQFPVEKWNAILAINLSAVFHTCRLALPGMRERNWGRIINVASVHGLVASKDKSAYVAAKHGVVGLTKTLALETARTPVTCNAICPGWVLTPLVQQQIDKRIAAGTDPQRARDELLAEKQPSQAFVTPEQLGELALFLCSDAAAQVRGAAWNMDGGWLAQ

CF3HBD = biological target: T2, CF3HBD (Citrobacter freundii, UniProt A0A0D7LY80); assay: X-ray crystal structure, […] Å; assay type: binding; settings: 5 mM NAD+, 3.2 M sodium acetate pH 6.5, 20 °C
T2 construct: gene AI2602V1_2506; tetramer in the asymmetric unit (two subunits NAD+-free)
T2 sequence (A0A0D7LY80 1-256): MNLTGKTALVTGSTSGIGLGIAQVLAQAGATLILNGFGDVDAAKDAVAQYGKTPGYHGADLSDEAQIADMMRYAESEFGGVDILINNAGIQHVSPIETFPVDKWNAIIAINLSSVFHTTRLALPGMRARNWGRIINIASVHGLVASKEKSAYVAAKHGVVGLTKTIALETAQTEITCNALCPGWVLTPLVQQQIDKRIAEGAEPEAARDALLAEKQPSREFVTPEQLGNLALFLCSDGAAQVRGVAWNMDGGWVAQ

[2] = substrate: NCCCCCC(=O)O; assay: LC-MS of caprolactam formed, Michaelis-Menten fit; assay type: biochemical, Citrobacter freundii; settings: 50 mM HEPES pH 7.5, 35 °C, 10 min, no cofactor or metal, cyclization to ε-caprolactam

stoichiometry N [1]: 4
Molecule: 3-hydroxybutyrate dehydrogenase from Citrobacter freundii (CF3HBD) (enzyme)

Molecule: NCCCCCC(=O)O [6-aminocaproic acid]
cyclization assay with purified enzyme, ε-caprolactam formed (SM3HBD): both enzymes showed cyclization activity towards 6-ACA to produce ε-caprolactam

Molecule: NC(=O)c1ccc[n+]([C@@H]2O[C@H](COP(=O)(O)OP(=O)(O)OC[C@H]3O[C@@H](n4cnc5c(N)ncnc54)[C@H](O)[C@@H]3O)[C@@H](O)[C@H]2O)c1 [NAD^+]
X-ray crystal structure, 2.29 Å (CF3HBD): we determined the crystal structure of CF3HBD in complex with NAD^+

B1: CF3HBD (Citrobacter freundii) (protein)
chain: T2 sequence (A0A0D7LY80 1-256)
notes: tetramer in the asymmetric unit (two subunits NAD+-free)
Km [2]: 3.3 ± 0.3 mM
kcat [2]: 0.0012 ± 3.33e-05 s⁻¹
kcat/Km [2]: 0.363 ± 0.03 M⁻¹ s⁻¹
